Measured values reported in patent publication US11793905B2, “Dressing” (University of Birmingham, priority 2015, dated 2023).

System: MFs
Test: Sirius red assay of collagen deposition from MFs under decorin-containing gellan membranes
Format: cell-based
Conditions: MFs with TGF-β1 added to produce excess collagen; 12 day period; Sirius red dye read at 550 nm; compared to non-treated samples
Description: FIG. 4—MFs were cultured in 6-well plates and left to attach overnight. After overnight attachment TGF-β1 was added to the cells to produces excess collagen. Decorin containing membranes were placed on top of the cultures and collagen production was observed using the Sirius Red assay over time.
FIG. 5: For quantifying the amount of Sirius red dye bound to collagen in the cultures the Sirius red was dissolved with 0.1N sodium hydroxide and left on a shaker for 30 min at room temperature. The dissolved dye was measured colourimetrically using a plate reader at 550 nm

B1: decorin (protein, UniProt P07585 31-359, looked up)
Decorin: DEASGIGPEVPDDRDFEPSLGPVCPFRCQCHLRVVQCSDLGLDKVPKDLPPDTTLLDLQNNKITEIKDGDFKNLKNLHALILVNNKISKVSPGAFTPLVKLERLYLSKNQLKELPEKMPKTLQELRAHENEITKVRKVTFNGLNQMIVIELGTNPLKSSGIENGAFQGMKKLSYIRIADTNITSIPQGLPPSLTELHLDGNKISRVDAASLKGLNNLAKLGLSFNSISAVDNGSLANTPHLRELHLDNNKLTRVPGGLAEHKYIQVVYLHNNNISVVGSSDFCPPGHNTKKASYSGVSLFSNPVQYWEIQPSTFRCVYVRSAIQLGNYK
notes: secreted 45 kDA proteoglycan with a core protein comprising primarily leucine-rich repeats; antifibrotic agent
- amount of collagen deposited: significantly reduces the amount of collagen deposited
